Read-outs that look alike come from different tables or passages of the source.
How the values were obtained:
[1] = target: DesAOMT, O-methyltransferase from Desulfuromonas acetoxidans (Desulfuromonas acetoxidans); test: crystal structure
[2] = target: DesAOMT, O-methyltransferase from Desulfuromonas acetoxidans (Desulfuromonas acetoxidans); test: SEC
[3] = target: StrAOMT, O-methyltransferase from Streptomyces avermitilis (Streptomyces avermitilis); test: crystal structure
[4] = target: StrAOMT, O-methyltransferase from Streptomyces avermitilis (Streptomyces avermitilis); test: crystal structure; remark: listed apart in the source

| Substance | stoichiometry N [1] | stoichiometry N [2] | stoichiometry N [3] | stoichiometry N [4] |
| --- | --- | --- | --- | --- |
| DesAOMT, O-methyltransferase from Desulfuromonas acetoxidans (enzyme) | 2 | 2 | – | – |
| StrAOMT, O-methyltransferase from Streptomyces avermitilis (enzyme) | – | – | 2 | 2 |

Reference: publication doi:10.1101/2023.01.28.526015
